According to paper PMC10009750, “Development of Selective ADAMTS-5 Peptide Substrates to Monitor Proteinase Activity” (Journal of Medicinal Chemistry, 2023):
Non-standard residues stand in square brackets, D forms with d. No end group written: not given here. Tyr(3-NO2) = N[C@@H](Cc1ccc(O)c([N+](=O)[O-])c1)C(=O)O; 2Abz = Nc1ccccc1C(=O)O

Tests used:
Format in all cases: biochemical
TS4-4 (ADAMTS-4) = biological target: T1, TS4-4 (ADAMTS-4) (Homo sapiens, UniProt O75173); test: Selectivity studies: cleavage of FRET peptide substrates by TS4-4; conditions: substrate 20 μM; for preference (selectivity) for TS5-5 over TS4-4: ratio of cleavage rates; for rate of cleavage by TS4-4: TS4-4 50–90 nM, mean of 3–4 independent experiments in triplicate
T1 construct: TS4-4, TS5-5 = catalytic and disintegrin domains; made in house; host or cells: HEK293 cells (previously transfected stocks)
T1 sequence (O75173 213-519 limits assumed): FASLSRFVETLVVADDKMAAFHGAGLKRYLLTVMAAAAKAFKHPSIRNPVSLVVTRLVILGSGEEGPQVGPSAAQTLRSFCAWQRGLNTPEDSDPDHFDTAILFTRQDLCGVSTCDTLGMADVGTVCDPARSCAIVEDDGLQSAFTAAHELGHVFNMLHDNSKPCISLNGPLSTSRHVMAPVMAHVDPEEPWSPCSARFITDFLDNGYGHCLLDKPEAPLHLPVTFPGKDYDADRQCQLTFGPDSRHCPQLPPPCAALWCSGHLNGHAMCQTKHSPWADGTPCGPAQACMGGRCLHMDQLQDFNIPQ
Protocol: (§1) All proteinase assays were performed at 37 °C in a SpectraMax M5 spectrophotometer (Molecular Devices, San Jose, USA) using a 96-well black microplate (Greiner bio-one, Stonehouse, UK) unless otherwise stated. […] N-TIMP-3 was purified as described previously[30] and CT-1746 was a gift from Dr. Yoshifumi Itoh (Kennedy Institute of Rheumatology, University of Oxford). All analyses were carried out using Prism 9 software (GraphPad, La Jolla, CA, USA).
(§2) Selectivity studies are described for Abz-TESE↓SRGAIY-Dpa-KK-NH2, the library parent peptide 3, and hit peptides 18–26. A solution of Abz-TESE↓SRGAIY-Dpa-KK-NH2 (22.22 μM) in freshly prepared TNC buffer with 0.005% (v/v) Brij-35 (90 μL) was added to a 96-well clear bottom microplate (Greiner bio-one, Stonehouse, UK) in triplicate. A substrate-only background control was also added in triplicate (90 μL). The resultant solutions were incubated at 37 °C (30 min). An ADAMTS or MMP proteinase was added to substrate wells (10 μL) to give a final proteinase concentration of either 50–90 nM (TS4-4), 25–200 nM (TS5-5), 5–10 nM (MMP-2ΔC), 30 nM (MMP-9ΔC), 92 nM (MMP-1), or 3 μM (MMP-3). TNC buffer with 0.005% (v/v) Brij-35 was added to substrate-only control wells (10 μL). The relative fluorescence intensity was measured at 37 °C for 1 h with readings every 20 s. Activity was read from underneath the microplate, which was covered with a low evaporation lid. […] For each ADAMTS and MMP proteinase, the assay was performed 2–4 times. […] Final rates were expressed as a percentage of substrate cleavage by TS5-5 (mean ± SEM) or in μM s^–1 μM^–1 of proteinase.

[1] = tested on: MMP-2ΔC (catalytic domain of MMP-2); test: Selectivity studies: cleavage of FRET peptide substrates by MMP-2ΔC; conditions: substrate 20 μM; for preference (selectivity) for TS5-5 over MMP-2ΔC: ratio of cleavage rates
Protocol: as §1, §2

TS5-5 (ADAMTS-5) [2] = biological target: T2, TS5-5 (ADAMTS-5) (Homo sapiens, UniProt Q9UNA0); test: Rate of cleavage of 3 and 26 by TS5-5 at different substrate concentrations; conditions: TS5-5 57 nM, after 1 h, 37 °C
T2 construct: ADAMTS-5 (i.e. TS5-5, residues 264–555); FLAG; made in house; host or cells: HEK293 cells (previously transfected stocks)
T2 sequence (Q9UNA0 264-555): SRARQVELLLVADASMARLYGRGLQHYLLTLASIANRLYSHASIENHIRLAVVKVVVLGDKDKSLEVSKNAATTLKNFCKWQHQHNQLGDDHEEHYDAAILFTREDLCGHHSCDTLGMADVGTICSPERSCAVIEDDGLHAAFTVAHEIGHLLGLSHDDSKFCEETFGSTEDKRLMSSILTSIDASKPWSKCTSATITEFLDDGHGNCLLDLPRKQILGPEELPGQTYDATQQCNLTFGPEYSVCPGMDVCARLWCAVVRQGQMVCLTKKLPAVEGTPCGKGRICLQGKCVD
Protocol: To test whether active TS5-5 had been purified, three concentrations of proteinase were assayed. […] A substrate-only background control was also added in triplicate (180 μL). The resultant solutions were incubated at 37 °C (30 min). […] TNC buffer with 0.02% (v/v) Brij-35 (20 μL) was also added to background control wells. The change in RFU was measured at 37 °C for 1 h, with readings every 20 s. Following subtraction of background fluorescence intensity, linear regression analysis of the linear part of each curve was used to determine the cleavage rate, which was expressed as the mean ± SEM in RFU s^–1. For cases where a single concentration of TS5-5 or TS4-4 was assayed, the same procedure was used but with 0.005% (v/v) Brij-35 and using the 5-FAM-AE↓LQGRPISIAK-TAMRA substrate for TS4-4 (0.56 μM). To convert cleavage rates to nM s^–1 nM^–1, the rate in RFU s^–1 was divided by the final concentration of proteinase (nM), then divided by the gradient of the calibration curve for Abz or 5-FAM (expressed in RFU nM^–1).
This was carried out according to the procedure described for activity studies of ADAMTSs with a single concentration of proteinase, except that a range of substrate concentrations was used for 3 and 26 (20 to 0.63 μM). Additionally, control wells for each substrate concentration were used in single replicate. The final concentration of TS5-5 was 57 nM.

TS5-5 (ADAMTS-5) [3] = biological target: T2, TS5-5 (ADAMTS-5); test: Sensitivity studies with TS5-5; conditions: 37 °C; for ΔRFU after 20 h: single experiment in triplicate; for lowest ADAMTS-5 concentration at which activity is detected: 5 μM substrate, experiments performed for ∼20 h
Protocol: Abz-TESE↓SRGAIY-Dpa-KK-NH2, library parent peptide 3 and hit peptide 26 (5 mM) were each diluted to two concentrations (5.56 μM and 2.78 μM) in freshly prepared TNC buffer with 0.005% (v/v) Brij-35. The two concentrations for each substrate (90 μL) were added to a 96-well black microplate in triplicate. A substrate-only background control was also added in triplicate (90 μL). The resultant solutions were incubated at 37 °C (20 min). TS5-5 proteinase was thawed from −20 °C and made up at the following concentrations in TNC buffer with 0.005% (v/v) Brij-35:10, 5, 2.5, and 1.25 nM. Each concentration of proteinase was added to substrate wells (10 μL), with buffer added to substrate-only control wells (10 μL). The relative fluorescence intensity was measured at 37 °C for 24 h, with readings every 2 min.

[4] = TNC buffer with 0.005% (v/v) Brij-35, 37 °C
[5] = TNC buffer with 0.005% (v/v) Brij-35, 37 °C, mean of 2–8 independent experiments in triplicate

Substance	preference (selectivity) for TS5-5 over TS4-4 (TS4-4 (ADAMTS-4))	rate of cleavage by TS4-4 (TS4-4 (ADAMTS-4); [4])	preference (selectivity) for TS5-5 over MMP-2ΔC [1]	lowest concentration of substrate detectibly cleaved by TS5-5 (ΔRFU ≥ 300) (TS5-5 (ADAMTS-5) [2])	ΔRFU after 20 h (TS5-5 (ADAMTS-5) [3]; 0.25 nM TS5-5, substrate 5 μM)	ΔRFU after 20 h (TS5-5 (ADAMTS-5) [3]; 0.5 nM TS5-5, substrate 5 μM)	ΔRFU after 20 h (TS5-5 (ADAMTS-5) [3]; 1 nM TS5-5, substrate 5 μM)	lowest ADAMTS-5 concentration at which activity is detected (TS5-5 (ADAMTS-5) [3])	cleavage by TS4-4 as a fraction (percentage) of TS5-5 cleavage of the current substrate (TS4-4 (ADAMTS-4); [5])	cleavage by MMP-2ΔC as a fraction (percentage) of TS5-5 cleavage of the current substrate [1, 5]
KY(NO2)SENESRGK(Abz)IYYKKG (K[Tyr(3-NO2)]SENESRGK(2Abz)IYYKKG) [Compound 26]	~13 fold	0.08–0.10 μM s^–1 μM^–1	~8 fold	5 µM	> 30	> 100	> 100	0.25 nM		
Abz-TESE↓SRGAIY-Dpa-KK-NH2 [current, ortho-aminobenzoyl(Abz)-TESE↓SRGAIY-N-3-[2,4-dinitrophenyl]-L-2,3-diaminopropionyl(Dpa)-KK-NH2, reference compound]	~5 fold	0.090 μM s^–1 μM^–1	~0.7 fold		no longer able to detect TS5-5 activity above background fluorescence	59	> 100		22%	138%
KY(NO2)TESESRGK(Abz)IYYKKG (K[Tyr(3-NO2)]TESESRGK(Abz)IYYKKG) [Compound 3]	~16 fold	0.08–0.10 μM s^–1 μM^–1	~10 fold	2.5 µM	> 30	> 100	> 100	0.25 nM		
